Assay results published in patent publication US20230301998A1 (SANFORD BURNHAM PREBYS MEDICAL DISCOVERY INSTITUTE, published 2023).

Experiments:
Test in all cases: Flag IP of Flag-SHARPIN from WM115 lysate, on-bead tryptic digestion, LC/MS-MS
TUBB = target: T1, TUBB (human, UniProt P07437 1-444)
T1 construct: endogenous protein co-purified from WM115 lysate
Method: (§1) To identify SHARPIN-interacting proteins, WM115 cells were transfected with Flag-tagged SHARPIN or control empty plasmid. Cell lysates were prepared using 1% Triton X-100 buffer [50 mM Tris-HCl, pH7.4, 1% (v/v) Triton X-100, 150 mM NaCl, 1 mM EDTA, and protease and phosphatase inhibitor cocktails (Thermo Fisher Scientific)]. Lysates were pre-cleared with protein A/G beads (Santa Cruz Biotechnology) for 1 h at 4° C. followed by immunoprecipitation using FLAG-M2-agarose beads (Sigma-Aldrich) overnight at 4° C. Beads were then washed with lysis buffer and TBS containing lx protease inhibitor cocktail before being subjected to on-bead tryptic digestion followed by mass spectrometry. In Vitro Methylation Assay.

RBM10 = target: T2, RBM10 (human, UniProt P98175 1-930, limits assumed)
T2 construct: endogenous protein co-purified from WM115 lysate
Method: as §1

FASN = target: T3, FASN (human, UniProt P49327 1-2511)
T3 construct: endogenous protein co-purified from WM115 lysate
Method: as §1

PDIA6 = target: T4, PDIA6 (human, UniProt Q15084 20-440)
T4 construct: endogenous protein co-purified from WM115 lysate
T4 sequence (looked up): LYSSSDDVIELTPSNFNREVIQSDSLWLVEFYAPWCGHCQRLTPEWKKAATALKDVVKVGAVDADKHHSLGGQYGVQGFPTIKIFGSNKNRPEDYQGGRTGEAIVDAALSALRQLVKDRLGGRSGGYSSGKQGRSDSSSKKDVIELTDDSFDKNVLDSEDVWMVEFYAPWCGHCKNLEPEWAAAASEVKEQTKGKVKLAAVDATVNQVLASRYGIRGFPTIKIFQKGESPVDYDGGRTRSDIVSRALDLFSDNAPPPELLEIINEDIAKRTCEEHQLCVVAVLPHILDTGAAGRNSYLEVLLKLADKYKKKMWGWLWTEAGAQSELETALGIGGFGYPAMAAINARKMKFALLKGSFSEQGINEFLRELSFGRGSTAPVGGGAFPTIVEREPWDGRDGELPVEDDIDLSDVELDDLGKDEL
Method: as §1

HNRNPU = target: T5, HNRNPU (human, UniProt Q00839 2-825, limits assumed)
T5 construct: endogenous protein co-purified from WM115 lysate
Method: as §1

HSPD1 = target: T6, HSPD1 (human, UniProt P10809 27-573)
T6 construct: endogenous protein co-purified from WM115 lysate
Method: as §1

FLNA = target: T7, FLNA (human, UniProt P21333 2-2647, limits assumed)
T7 construct: endogenous protein co-purified from WM115 lysate
Method: as §1

SLC25A13 = target: T8, SLC25A13 (human, UniProt Q9UJS0 2-675)
T8 construct: endogenous protein co-purified from WM115 lysate
T8 sequence (looked up): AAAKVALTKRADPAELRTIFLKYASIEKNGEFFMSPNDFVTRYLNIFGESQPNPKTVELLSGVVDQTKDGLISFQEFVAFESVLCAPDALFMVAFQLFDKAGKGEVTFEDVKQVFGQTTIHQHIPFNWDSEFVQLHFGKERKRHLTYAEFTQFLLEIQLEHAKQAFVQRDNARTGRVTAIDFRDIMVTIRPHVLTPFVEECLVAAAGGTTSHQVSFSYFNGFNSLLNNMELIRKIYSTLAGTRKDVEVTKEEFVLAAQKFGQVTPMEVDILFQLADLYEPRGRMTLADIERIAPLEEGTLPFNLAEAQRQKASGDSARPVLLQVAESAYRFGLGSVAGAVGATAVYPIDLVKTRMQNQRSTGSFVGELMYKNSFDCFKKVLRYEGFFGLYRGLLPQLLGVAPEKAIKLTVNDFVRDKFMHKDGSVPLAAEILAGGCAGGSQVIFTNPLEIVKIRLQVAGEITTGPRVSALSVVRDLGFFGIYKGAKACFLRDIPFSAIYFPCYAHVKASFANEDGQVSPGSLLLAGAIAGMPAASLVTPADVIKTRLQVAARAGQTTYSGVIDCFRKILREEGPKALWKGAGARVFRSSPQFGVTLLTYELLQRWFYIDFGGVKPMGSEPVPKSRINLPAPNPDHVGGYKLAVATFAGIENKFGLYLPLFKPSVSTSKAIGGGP
Method: as §1

PNKP = target: T9, PNKP (human, UniProt Q96T60 1-521)
T9 construct: endogenous protein co-purified from WM115 lysate
Method: as §1

XRCC6 = target: T10, XRCC6 (human, UniProt P12956 2-609)
T10 construct: endogenous protein co-purified from WM115 lysate
Method: as §1

PFKFB3 = target: T11, PFKFB3 (human, UniProt Q16875 1-520, limits assumed)
T11 construct: endogenous protein co-purified from WM115 lysate
Method: as §1

HSPA8 = target: T12, HSPA8 (human, UniProt P11142 2-646)
T12 construct: endogenous protein co-purified from WM115 lysate
Method: as §1

P4HB = target: T13, P4HB (human, UniProt P07237 18-508)
T13 construct: endogenous protein co-purified from WM115 lysate
Method: as §1

MYH10 = target: T14, MYH10 (human, UniProt P35580 1-1976, limits assumed)
T14 construct: endogenous protein co-purified from WM115 lysate
Method: as §1

CLTC = target: T15, CLTC (human, UniProt Q00610 2-1675)
T15 construct: endogenous protein co-purified from WM115 lysate
Method: as §1

ATP5B = target: T16, ATP5B (human, UniProt P06576 48-529)
T16 construct: endogenous protein co-purified from WM115 lysate
Method: as §1

T3 sequence (P49327 whole entry): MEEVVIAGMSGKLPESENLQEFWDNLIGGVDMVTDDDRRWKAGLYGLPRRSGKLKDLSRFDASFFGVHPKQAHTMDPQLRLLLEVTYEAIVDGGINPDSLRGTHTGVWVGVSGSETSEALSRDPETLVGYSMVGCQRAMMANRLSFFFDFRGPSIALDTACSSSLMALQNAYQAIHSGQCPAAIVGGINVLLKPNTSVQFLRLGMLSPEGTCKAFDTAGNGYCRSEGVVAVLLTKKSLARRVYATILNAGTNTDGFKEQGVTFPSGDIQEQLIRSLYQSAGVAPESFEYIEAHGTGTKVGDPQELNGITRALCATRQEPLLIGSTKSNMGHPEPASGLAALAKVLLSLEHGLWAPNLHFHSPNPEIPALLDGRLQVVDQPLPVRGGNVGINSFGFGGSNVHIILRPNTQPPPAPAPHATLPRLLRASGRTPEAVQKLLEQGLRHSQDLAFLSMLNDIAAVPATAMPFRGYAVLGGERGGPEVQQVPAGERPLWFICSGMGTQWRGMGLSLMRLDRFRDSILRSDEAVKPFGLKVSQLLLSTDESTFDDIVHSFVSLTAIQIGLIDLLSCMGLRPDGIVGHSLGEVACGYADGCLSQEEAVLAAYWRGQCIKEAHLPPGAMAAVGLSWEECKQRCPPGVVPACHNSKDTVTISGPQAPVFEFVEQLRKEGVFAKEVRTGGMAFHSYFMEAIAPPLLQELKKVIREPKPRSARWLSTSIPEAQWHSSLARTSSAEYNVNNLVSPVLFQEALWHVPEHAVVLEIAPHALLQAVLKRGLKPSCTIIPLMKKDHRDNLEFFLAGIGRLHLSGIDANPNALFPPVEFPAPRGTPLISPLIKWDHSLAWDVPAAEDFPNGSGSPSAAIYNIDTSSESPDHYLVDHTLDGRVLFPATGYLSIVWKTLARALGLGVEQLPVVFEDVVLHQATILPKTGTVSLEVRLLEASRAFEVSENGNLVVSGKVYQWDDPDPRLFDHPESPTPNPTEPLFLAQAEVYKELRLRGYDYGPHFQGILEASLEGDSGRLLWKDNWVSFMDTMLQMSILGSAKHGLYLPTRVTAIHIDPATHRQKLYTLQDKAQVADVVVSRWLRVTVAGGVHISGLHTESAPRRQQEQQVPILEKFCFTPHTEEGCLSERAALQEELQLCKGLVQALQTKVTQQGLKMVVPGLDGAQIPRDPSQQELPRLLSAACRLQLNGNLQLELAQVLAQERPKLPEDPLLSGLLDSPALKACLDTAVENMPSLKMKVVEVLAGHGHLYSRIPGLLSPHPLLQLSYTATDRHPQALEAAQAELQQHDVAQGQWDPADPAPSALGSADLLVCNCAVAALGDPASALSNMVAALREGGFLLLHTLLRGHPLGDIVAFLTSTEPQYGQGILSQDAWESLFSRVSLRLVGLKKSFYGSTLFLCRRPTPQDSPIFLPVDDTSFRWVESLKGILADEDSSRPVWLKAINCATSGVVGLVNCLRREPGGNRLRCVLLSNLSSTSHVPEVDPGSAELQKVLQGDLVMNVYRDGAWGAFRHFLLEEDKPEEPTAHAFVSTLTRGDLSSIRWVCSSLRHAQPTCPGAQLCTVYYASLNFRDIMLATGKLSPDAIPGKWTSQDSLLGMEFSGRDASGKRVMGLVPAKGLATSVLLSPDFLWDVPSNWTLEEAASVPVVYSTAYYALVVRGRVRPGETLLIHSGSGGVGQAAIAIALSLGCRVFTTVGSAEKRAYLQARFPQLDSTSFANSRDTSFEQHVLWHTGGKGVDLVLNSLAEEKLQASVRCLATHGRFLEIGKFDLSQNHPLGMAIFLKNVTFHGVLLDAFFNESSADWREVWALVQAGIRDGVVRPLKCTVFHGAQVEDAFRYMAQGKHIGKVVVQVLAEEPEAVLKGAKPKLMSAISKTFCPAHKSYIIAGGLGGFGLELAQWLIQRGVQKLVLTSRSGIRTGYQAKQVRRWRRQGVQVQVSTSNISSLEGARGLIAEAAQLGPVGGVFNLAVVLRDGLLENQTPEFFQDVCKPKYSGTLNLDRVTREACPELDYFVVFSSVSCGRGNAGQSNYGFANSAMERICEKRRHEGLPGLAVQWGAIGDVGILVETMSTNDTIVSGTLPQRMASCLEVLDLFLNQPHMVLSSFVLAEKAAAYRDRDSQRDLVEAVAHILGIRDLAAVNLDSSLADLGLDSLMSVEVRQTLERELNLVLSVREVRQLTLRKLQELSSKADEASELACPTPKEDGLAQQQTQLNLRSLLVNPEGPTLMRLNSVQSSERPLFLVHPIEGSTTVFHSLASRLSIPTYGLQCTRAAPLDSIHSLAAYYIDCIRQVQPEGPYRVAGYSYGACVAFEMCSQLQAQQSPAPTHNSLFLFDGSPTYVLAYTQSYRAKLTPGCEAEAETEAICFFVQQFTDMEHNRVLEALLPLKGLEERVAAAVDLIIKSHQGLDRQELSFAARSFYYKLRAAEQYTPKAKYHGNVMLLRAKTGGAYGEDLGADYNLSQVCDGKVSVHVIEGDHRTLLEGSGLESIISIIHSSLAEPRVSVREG
T1 sequence (P07437 whole entry): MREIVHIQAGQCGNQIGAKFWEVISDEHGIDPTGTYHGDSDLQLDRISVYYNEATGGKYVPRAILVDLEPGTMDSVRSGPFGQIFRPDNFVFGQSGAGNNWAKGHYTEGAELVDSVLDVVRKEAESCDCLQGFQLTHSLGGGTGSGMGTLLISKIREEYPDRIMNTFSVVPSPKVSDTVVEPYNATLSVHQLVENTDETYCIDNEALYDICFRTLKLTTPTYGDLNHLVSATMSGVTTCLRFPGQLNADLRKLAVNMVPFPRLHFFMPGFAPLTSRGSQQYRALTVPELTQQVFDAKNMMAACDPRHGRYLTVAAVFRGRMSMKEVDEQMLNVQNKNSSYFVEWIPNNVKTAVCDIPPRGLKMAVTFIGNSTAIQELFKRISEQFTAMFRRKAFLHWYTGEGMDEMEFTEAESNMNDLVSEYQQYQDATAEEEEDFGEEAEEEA
T5 sequence (Q00839 2-825 limits assumed): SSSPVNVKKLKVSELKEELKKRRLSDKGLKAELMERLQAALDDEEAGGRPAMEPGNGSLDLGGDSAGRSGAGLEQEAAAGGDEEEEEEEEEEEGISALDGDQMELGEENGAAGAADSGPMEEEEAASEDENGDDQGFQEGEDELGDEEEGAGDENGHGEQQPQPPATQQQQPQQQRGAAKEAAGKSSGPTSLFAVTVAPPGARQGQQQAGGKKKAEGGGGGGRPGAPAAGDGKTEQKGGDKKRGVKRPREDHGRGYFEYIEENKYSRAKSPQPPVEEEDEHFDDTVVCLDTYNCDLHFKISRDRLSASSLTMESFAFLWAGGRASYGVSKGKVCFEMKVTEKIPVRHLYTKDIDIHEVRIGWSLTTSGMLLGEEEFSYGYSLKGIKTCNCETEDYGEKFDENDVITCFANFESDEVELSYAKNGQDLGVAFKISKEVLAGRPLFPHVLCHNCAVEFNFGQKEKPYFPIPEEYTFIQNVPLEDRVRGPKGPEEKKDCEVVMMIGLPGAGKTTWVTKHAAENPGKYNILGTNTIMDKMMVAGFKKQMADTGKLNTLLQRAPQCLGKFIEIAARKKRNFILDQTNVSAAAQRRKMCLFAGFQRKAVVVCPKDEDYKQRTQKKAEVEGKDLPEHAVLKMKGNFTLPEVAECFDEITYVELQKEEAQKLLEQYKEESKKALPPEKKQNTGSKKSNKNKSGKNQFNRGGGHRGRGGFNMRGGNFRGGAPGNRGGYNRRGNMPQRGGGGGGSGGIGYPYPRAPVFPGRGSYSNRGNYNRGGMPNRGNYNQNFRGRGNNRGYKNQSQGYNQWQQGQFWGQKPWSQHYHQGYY
T13 sequence (P07237 18-508 limits assumed): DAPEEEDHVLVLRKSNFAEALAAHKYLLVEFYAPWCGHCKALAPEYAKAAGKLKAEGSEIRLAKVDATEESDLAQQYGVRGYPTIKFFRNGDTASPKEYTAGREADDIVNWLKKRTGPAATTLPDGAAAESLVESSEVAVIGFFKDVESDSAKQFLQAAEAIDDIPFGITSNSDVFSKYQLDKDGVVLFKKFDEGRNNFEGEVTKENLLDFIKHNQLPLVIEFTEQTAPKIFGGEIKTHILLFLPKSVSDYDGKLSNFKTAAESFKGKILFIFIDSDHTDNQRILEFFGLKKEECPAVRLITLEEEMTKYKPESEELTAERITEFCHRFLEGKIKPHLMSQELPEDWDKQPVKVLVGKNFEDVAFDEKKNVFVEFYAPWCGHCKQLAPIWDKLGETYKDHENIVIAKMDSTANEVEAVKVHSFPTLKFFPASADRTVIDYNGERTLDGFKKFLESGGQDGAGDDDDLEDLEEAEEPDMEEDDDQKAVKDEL
T12 sequence (P11142 2-646 limits assumed): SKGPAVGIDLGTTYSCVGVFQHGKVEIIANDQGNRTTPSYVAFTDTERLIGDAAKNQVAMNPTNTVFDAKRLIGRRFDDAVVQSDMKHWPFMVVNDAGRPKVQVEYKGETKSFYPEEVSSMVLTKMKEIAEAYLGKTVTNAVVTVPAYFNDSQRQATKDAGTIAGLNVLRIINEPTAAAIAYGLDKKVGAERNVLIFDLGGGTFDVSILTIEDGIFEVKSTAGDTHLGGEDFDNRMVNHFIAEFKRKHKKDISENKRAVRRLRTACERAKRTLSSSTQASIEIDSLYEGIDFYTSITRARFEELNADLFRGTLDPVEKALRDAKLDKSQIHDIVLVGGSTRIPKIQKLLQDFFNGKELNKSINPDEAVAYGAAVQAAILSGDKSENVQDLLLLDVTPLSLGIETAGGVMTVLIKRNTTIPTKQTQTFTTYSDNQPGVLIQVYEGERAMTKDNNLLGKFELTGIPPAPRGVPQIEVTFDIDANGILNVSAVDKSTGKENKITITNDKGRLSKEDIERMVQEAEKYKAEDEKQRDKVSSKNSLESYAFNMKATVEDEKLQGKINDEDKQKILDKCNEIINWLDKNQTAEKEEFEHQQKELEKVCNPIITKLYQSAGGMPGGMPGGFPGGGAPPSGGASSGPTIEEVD

binding result (TUBB): binds | binding result (RBM10): binds | binding result (FASN): binds | binding result (PDIA6): binds | binding result (HNRNPU): binds | binding result (HSPD1): binds | binding result (FLNA): binds | binding result (SLC25A13): binds | binding result (PNKP): binds | binding result (XRCC6): binds | binding result (PFKFB3): binds | binding result (HSPA8): binds | binding result (P4HB): binds | binding result (MYH10): binds | binding result (CLTC): binds | binding result (ATP5B): binds
B1: Flag-tagged SHARPIN (other, human, UniProt Q9H0F6 1-387, looked up)
chain: MAPPAGGAAAAASDLGSAAVLLAVHAAVRPLGAGPDAEAQLRRLQLSADPERPGRFRLELLGAGPGAVNLEWPLESVSYTIRGPTQHELQPPPGGPGTLSLHFLNPQEAQRWAVLVRGATVEGQNGSKSNSPPALGPEACPVSLPSPPEASTLKGPPPEADLPRSPGNLTEREELAGSLARAIAGGDEKGAAQVAAVLAQHRVALSVQLQEACFPPGPIRLQVTLEDAASAASAASSAHVALQVHPHCTVAALQEQVFSELGFPPAVQRWVIGRCLCVPERSLASYGVRQDGDPAFLYLLSAPREAPATGPSPQHPQKMDGELGRLFPPSLGLPPGPQPAASSLPSPLQPSWSCPSCTFINAPDRPGCEMCSTQRPCTWDPLAAAST
notes: also called Flag-SHARPIN; not shown: FLAG tag
